Source: article PMC5803212, “Supramolecular aptamer nano-constructs for receptor-mediated targeting and light-triggered release of chemotherapeutics into cancer cells”

Assays:
[1] = molecular target: cMet-Fc (HGFR ectodomain fused to human IgG1 Fc) (human) (UniProt P08581); assay: competition filter binding; settings: vs 5'-32P-trCLN3; ~50 nM cMet; four 5'-terminal 5-(1-dodecynyl)-dU (C12 lipid; printed as LLLL, written as UUUU); 1x PBS pH 7.4, 2 mM MgCl2, 0.1 mg/mL E. coli tRNA, 0.25 mg/mL BSA, 37 C, 30 min; ~25 fmol 32P-trCLN3, ~50 nM cMet, 25 uL, nitrocellulose filter
cMet-Fc (HGFR ectodomain fused to human IgG1 Fc) (human), sequence (P08581 25-932): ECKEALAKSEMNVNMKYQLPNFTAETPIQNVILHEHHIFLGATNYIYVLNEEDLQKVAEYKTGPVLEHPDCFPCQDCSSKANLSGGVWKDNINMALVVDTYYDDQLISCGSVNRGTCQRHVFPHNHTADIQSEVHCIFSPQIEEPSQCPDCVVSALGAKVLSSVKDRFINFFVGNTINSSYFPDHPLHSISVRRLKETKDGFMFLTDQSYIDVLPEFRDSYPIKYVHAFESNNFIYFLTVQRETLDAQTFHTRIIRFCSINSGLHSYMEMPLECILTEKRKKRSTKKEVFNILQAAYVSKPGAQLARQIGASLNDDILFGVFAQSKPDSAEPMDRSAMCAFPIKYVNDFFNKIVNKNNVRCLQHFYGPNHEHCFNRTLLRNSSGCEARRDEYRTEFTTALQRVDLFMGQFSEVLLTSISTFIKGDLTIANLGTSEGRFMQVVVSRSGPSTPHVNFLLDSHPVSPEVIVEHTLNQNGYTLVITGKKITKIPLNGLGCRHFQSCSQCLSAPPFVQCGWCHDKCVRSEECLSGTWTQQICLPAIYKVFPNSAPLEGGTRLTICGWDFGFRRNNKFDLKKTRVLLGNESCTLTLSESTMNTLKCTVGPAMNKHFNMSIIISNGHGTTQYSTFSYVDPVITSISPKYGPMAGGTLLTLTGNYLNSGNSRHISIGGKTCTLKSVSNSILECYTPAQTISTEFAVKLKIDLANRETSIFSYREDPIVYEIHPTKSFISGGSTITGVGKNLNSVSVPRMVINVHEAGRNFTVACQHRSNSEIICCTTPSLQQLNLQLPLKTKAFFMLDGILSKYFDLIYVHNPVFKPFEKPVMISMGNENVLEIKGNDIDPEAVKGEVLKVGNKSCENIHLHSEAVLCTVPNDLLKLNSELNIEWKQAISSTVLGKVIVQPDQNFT

[2] = molecular target: cMet-Fc (HGFR ectodomain fused to human IgG1 Fc) (human, UniProt P08581 25-932); assay: competition filter binding; vs 5'-32P-trCLN3; ~50 nM cMet; 1x PBS pH 7.4, 2 mM MgCl2, 0.1 mg/mL E. coli tRNA, 0.25 mg/mL BSA, 37 C, 30 min; ~25 fmol 32P-trCLN3, ~50 nM cMet, 25 uL, nitrocellulose filter; settings: protein: commercial; two predicted intramolecular G-quadruplexes
cMet-Fc (HGFR ectodomain fused to human IgG1 Fc), sequence (P08581 25-932): as above

Molecule	IC50 [1] [nM]	IC50 [2] [nM]
UUUUTGGATGGTAGCTCGGTCGGGGTGGGTGGGTTGGCAAGTCT [trCLN3-L4]	43	–
TGGATGGTAGCTCGGTCGGGGTGGGTGGGTTGGCAAGTCT (structured_DNA) [trCLN3]	–	56
